Measurements as given in patent publication US20150203573A1 (MEDICAL AND BIOLOGICAL LABORATORIES, published 2015).
Substitutions are numbered along the chain they refer to.

T1: mutant MK recombinant protein MK-K79Q (human, UniProt P21741 23-143, K79Q)
T1 construct: range 23-143; Made from MKver10-pQCxmhIPG, secreted from 293T cells; not shown: linker and tag from vector pQCxmhIPG
T1 sequence (looked up): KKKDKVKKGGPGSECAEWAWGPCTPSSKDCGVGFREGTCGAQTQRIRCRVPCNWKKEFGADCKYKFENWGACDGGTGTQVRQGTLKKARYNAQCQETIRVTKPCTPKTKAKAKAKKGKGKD

T2: mutant MK recombinant protein MK-K102Q (human, UniProt P21741 23-143, K102Q)
T2 construct: range 23-143; Made from MKver10-pQCxmhIPG, secreted from 293T cells; not shown: linker and tag from vector pQCxmhIPG
T2 sequence (looked up): T1 sequence (looked up) with Q79K, K102Q

T3: mutant MK recombinant protein MK-R81Q (human, UniProt P21741 23-143, R81Q)
T3 construct: range 23-143; Made from MKver10-pQCxmhIPG, secreted from 293T cells; not shown: linker and tag from vector pQCxmhIPG
T3 sequence (looked up): T1 sequence (looked up) with Q79K, R81Q

T4: mutant MK recombinant protein MK-W69A (human, UniProt P21741 23-143, W69A)
T4 construct: range 23-143; Made from MKver10-pQCxmhIPG, secreted from 293T cells; not shown: linker and tag from vector pQCxmhIPG
T4 sequence (looked up): T1 sequence (looked up) with W69A, Q79K

T5: full length purified peptide of pleiotrophin (PEPTIDE INSTITUTE, INC.: 4335-v) (UniProt P21246 33-168, limits assumed)
T5 construct: mature; Bought product; also called PTN
T5 sequence (looked up): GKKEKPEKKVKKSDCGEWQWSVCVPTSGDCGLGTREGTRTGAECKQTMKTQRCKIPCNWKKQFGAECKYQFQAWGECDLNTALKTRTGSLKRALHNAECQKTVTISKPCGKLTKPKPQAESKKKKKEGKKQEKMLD

B1: anti-human midkine mouse monoclonal antibody FB54 (antibody, V domains shown)
VH: EVMLVESGGGLVKPGGSLKLSCAASGFTFSSYAMSWVRQTPEKRLEWVATISSGGSYTYYPDSVKGRFTISRDNAKNTLYLQMSSLRSEDTAMYFCARHNYRYDEYYYAMDYWGQGTSVTVSS
VL: ETTVTQSPTSLSMAIGEKVTIRCITSTDIDDEMNWYQQKPGEPPKLLISEGNTLRPGVPSRFSSSGYGTDFVFTIENMLSEDVADYYCLQSDNLPYTFGGGTKLEIK
notes: Mouse hybridoma IgG; variable genes were amplified with mouse IgG1 CH1 and kappa constant primers; also called mFB54; mouse FB54 antibody
B2: mFB54-matu089 affinity-improved antibody (IgG) (antibody, V domains shown)
VH: B1 VH with K13E, A23T, A24V, Q115H
VL: B1 VL with T27I, M78V
B3: mFB54-matu002 affinity-improved antibody (IgG) (antibody, V domains shown)
VH: B1 VH
VL: B1 VL with I24T, T27I, K39M
B4: hFB54-matu024 affinity-improved antibody (IgG) (antibody, V domains shown)
VH: EVQLVESGGGLVKPGGYLRLSCAASGFTFSSYAMSWVRQAPGKGLDWVATISSGGSYTYYPDSVKGRFTISRDNAKNSLYLQMNSLTDDDTAVYFCARHNYRYGEYYYAMDYWGQGTLVTVSS
VL: ETTVTQSPSSLSASVGDRVTIRCITSIDIDDEMNWYQQKSGKGPKLLISEGNTLRPGVPSRFSSSGYGTDFTLTISSLQPEDFATYYCLQSDNLPYTFGQGTKLEIK
B5: humanized FB54 antibody hFB54 (FB54-rHa/FB54-rKc) (antibody, human IgG1, V domains shown)
VH: B4 VH with G104D
VL: B4 VL with I27T, S40P
B6: hFB54-matu072 affinity-improved antibody (IgG) (antibody, V domains shown)
VH: B4 VH with S63N, G104D, Y108H
VL: B4 VL with S12F, R18K, S40P
B7: hFB54-matu062 affinity-improved antibody (IgG) (antibody, V domains shown)
VH: B4 VH with K76E, S78T, D88N, G104D
VL: B4 VL with S14F, D17G, T20A, S26N, S40P, L89M
B8: hFB54-matu039 affinity-improved antibody (IgG) (antibody, V domains shown)
VH: B4 VH with Q3R, G66E, G104D, A109G
VL: B4 VL with I24K, S40P, E105G
B9: hFB54-matu020 affinity-improved antibody (IgG) (antibody, V domains shown)
VH: B4 VH with L18Q, S85N, G104D, Y108H
VL: B4 VL with S40P
B10: hFB54-matu014 affinity-improved antibody (IgG) (antibody, V domains shown)
VH: B4 VH with A40T, A75V, G104D
VL: B4 VL with S26N, S40P, Q100R
B11: hFB54-matu054 affinity-improved antibody (IgG) (antibody, V domains shown)
VH: B4 VH with A75T, S78T, G104D
VL: B4 VL with D30E, S40P

What was measured:
[1] = molecular target: AP-MK, recombinant protein having alkaline phosphatase (AP) fused to the N-terminal of aa23-121 of MK (human) (UniProt P21741); assay: AP-MK binding inhibition assay on TNB1 cells; AP-MK 0.6 U/ml, antibody 90 ug/mL
[2] = molecular target: T1, mutant MK recombinant protein MK-K79Q; assay: ELISA, plates coated with wild type or mutant MK, antibody serially diluted from 5 ug/mL
Description: (§1) Hybridomas producing anti-MK antibodies were selected by enzyme-linked immunosorbent assay (ELISA). The assay used the aforementioned recombinant human MK (MKver10) which had been dispensed in a 96-well ELISA plate (nunc) in an amount of 0.5 μg/mL (50 μL/well) and left to stand for 2 hours at room temperature or overnight at […] for adsorption. After removal of the resulting solution, 1% BSA (Nacalai: 01863-35)-5% Sucrose (WAKO)-PBS was added in an amount of 150 μL/well, and the system was allowed to stand for 2 hours at room temperature to block the remaining active groups. After standing of the system, the resulting solution was removed, and the hybridoma culture supernatant (50 μL/well) was dispensed as a primary antibody, whereafter the system was allowed to stand for 1 hour. After the plate was washed with 0.05% Tween 20-PBS, HRP-labeled goat anti-mouse IgG (MBL: 330) diluted 1:10000 was added as a secondary antibody in an amount of 50 μL/well, and the system was allowed to stand for 1 hour at room temperature. After the plate was washed with 0.05% Tween 20-PBS, a color developing solution (5 mM sodium citrate, 0.8 mM 3,3′,5,5′-tetramethylbenzidine-2HCl, 10% N,N-dimethylformamide, 0.625% polyethylene glycol 4000, 5 mM citric acid monohydrate, 5 mM H₂O₂) was added in an amount of 50 μL/well, and the system was allowed to stand for 20 minutes at room temperature to develop a color. 1M phosphoric acid was added in an amount of 50 μL/well to terminate color development, and then the absorbance at 450 nm was measured using a plate reader (Thermo Fisher Scientific).
(§2) The reactivities of the resulting antibodies with the mutant MKs were confirmed by the same enzyme-linked immunosorbent assay (ELISA) as described above. The assays used plates having wild type human MK (MKver10) or the above-mentioned mutant MK (MK-W69A, MK-K79Q, MK-R81Q and MK-K102Q) adsorbed thereto. The anti-MK antibody at a maximum concentration of 5 μg/mL was serially diluted with PBS, and used as a primary antibody. As examples of the antibodies recognizing the N-terminal side or the C-terminal side of midkine, but showing no neutralizing activity, BF106 and FB74 were also evaluated similarly.

[3] = molecular target: T2, mutant MK recombinant protein MK-K102Q; assay: as above
Description: as §1, §2

[4] = molecular target: T3, mutant MK recombinant protein MK-R81Q; assay: as above
Description: as §1, §2

[5] = molecular target: T4, mutant MK recombinant protein MK-W69A; assay: as above
Description: as §1, §2

[6] = molecular target: T5, full length purified peptide of …; assay: ELISA on full length purified peptide of pleiotrophin
[7] = molecular target: AP-MK, recombinant protein having alkaline phosphatase (AP) fused to the N-terminal of aa23-121 of MK (human) (UniProt P21741); assay: AP-MK binding inhibition assay on TNB1 cells; antibody 10 ug/mL
Target sequence in this assay (P21741 23-143, form in doubt): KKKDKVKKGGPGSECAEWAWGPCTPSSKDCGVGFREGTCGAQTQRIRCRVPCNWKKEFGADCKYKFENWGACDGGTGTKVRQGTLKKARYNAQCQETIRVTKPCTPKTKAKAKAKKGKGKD

relative AP activity (% of wells with AP-MK alone) [7] [%]	other results	Binder
	relative AP activity (% of wells with AP-MK alone) [1]: 29.5%; binding result [2]: binds; binding result [3]: binds; binding result [4]: binds; binding result [5]: binds; binding result [6]: no binding	B1
20		B2
18.9		B3
22.7		B4
81.8		B5
33		B6
28.3		B7
30.1		B8
26.8		B9
25.6		B10
33.5		B11
